Data from patent US9309320.

Molecular target: murine CD95L, endogenous in SMA-560 tumor explants (murine) (UniProt P41047)
Experiment: cell-based or functional assay

Sequence of UniProt P41047 (P41047 whole entry): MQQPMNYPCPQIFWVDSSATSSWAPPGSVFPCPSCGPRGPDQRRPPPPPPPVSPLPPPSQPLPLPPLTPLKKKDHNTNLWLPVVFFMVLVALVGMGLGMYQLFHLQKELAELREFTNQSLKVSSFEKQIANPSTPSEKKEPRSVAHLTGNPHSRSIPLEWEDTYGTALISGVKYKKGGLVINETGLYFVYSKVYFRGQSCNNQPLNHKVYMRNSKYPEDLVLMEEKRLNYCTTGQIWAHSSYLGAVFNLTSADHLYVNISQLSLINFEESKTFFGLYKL

decrease in migration of cells out of SMA-560 tumor explants into collagen: 50%
Substance: MFL3, anti murine-CD95L neutralizing antibody
